Residue numbers refer to the chain shown, from its start.
B1: Sep1 (recombinant) (natural protein, Drosophila melanogaster, UniProt P42207 1-361, looked up)
chain: MADTKGFSSIETPGYVGFANLPNQVHRKSVKKGFEFTLMVVGESGLGKSTLVNSLFLTDLYPERIIPDAIEKQKQTVKLEASTVEIEERGVKLRLTVVDTPGFGDAIDNSNSFGAILEYIDEQYERFLRDESGLNRRNIVDNRIHCCFYFISPFGHGLKPLDVEFMKKLHSKVNIVPVIAKADCLTKKEILRLKCRIMQEIESHGIKIYPLPDCDSDEDEDYKEQVKQLKEAVPFAVCGANTLLEVKGKKVRGRLYPWGVVEVENPDHCDFIKLRTMLITHMQDLQEVTQEVHYENYRSDRLAKGIKGKENGVKAERDSSSQVVSNSVLGEKDRILQEKEAELRRMQEMLAQMQARMQAQQ
notes: Septin Sep1, Drosophila melanogaster; homolog of human SEPT2; source: baculovirus expression system, expressed together with His-tagged Pnut and Sep2; assembled complex purified
B2: Sep2 (recombinant) (natural protein, Drosophila melanogaster, UniProt P54359 1-419, looked up)
chain: MSVEVDFVDKKEVHLRTLKQSGHVGFDSLPDQLVNKSVQNGFVFNVMCIGETGLGKSTLMDTLFNTSFESTPSPHTLPSVKLKAHTYELQESNVRLKLTICDTVGYGDQINKDDSFKAVVDYIDAQFENYLQEELKIKRSLVTCHDSRIHICLYFICPTGHGLKSLDLVCMKKLDSKVNIIPVIAKADTISKVELQRFKAKIIQELNANGVHIYQFPTDDETVAETNTSMNSHIPFAVVGSTEFIKVGNKLIRARQYPWGTVQVENETHCDFVKLREMLIRTNMEDMREKTHTRHYELYRQKRLEQMGFSDVDSDNKPISFQQTFEAKRSNHLAELQSKEEEVRQMFVQRVKEKEAELKESEKDLHAKFEKLKRDHAEEKRKLEESRKALEEDYLDFQRRKQQLATAHHTLTLGKSKKK
notes: Septin Sep2, Drosophila melanogaster; homolog of human SEPT6; source: baculovirus expression system, expressed together with His-tagged Pnut and Sep1; assembled complex purified

Legend:
Settings in all cases: both partners purified
[1] = target: T1, His-tagged nonphosphorylatable Pnut-T509A/S517A (Drosophila melanogaster, UniProt P40797 1-539, T509A | S517A); assay: pull-down; 2 µg purified recombinant septin complex diluted in 200 µl pull-down buffer (25 mM HEPES pH 7.6, 2 mM MgCl2, 10 mM imidazole) with 300 mM KCl; His-Pnut held on HisPur Ni-NTA resin, 1 hr at 22°; eluted with 250 mM imidazole; silver-stained SDS-PAGE; Sep1 given as a percentage of the Pnut amount
T1 construct: Septin Pnut (Peanut), Drosophila melanogaster, with T509A and S517A; source: baculovirus expression system, expressed together with Sep1 and Sep2; assembled complex purified
T1 sequence (looked up): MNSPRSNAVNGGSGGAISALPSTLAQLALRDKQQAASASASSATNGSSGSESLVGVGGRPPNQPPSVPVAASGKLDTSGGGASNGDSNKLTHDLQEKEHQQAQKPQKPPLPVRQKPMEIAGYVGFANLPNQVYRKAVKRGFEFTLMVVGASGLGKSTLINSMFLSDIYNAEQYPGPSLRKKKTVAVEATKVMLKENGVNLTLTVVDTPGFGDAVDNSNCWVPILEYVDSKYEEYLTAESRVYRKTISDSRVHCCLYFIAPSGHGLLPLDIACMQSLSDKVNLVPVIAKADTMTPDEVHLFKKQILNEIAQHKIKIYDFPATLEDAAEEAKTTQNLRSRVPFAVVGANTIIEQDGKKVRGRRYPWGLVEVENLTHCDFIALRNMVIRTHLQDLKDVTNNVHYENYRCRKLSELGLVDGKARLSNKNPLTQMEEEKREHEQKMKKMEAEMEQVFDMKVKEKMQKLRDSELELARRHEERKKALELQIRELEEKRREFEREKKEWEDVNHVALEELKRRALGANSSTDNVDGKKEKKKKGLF

[2] = target: T2, His-tagged wild-type Pnut (Drosophila melanogaster, UniProt P40797 1-539); assay: as above
T2 construct: Septin Pnut (Peanut), Drosophila melanogaster, wild type; homolog of human SEPT7; also called His–Pnut; Pnut-WT; source: baculovirus expression system, expressed together with Sep1 and Sep2; assembled complex purified
T2 sequence (looked up): T1 sequence (looked up) with A509T, A517S

[3] = target: T3, His-tagged phospho-mimetic Pnut-T509E/S517E (Drosophila melanogaster, UniProt P40797 1-539, T509E | S517E); assay: as above
T3 construct: Septin Pnut (Peanut), Drosophila melanogaster, with T509E and S517E; also called T509E/S517E mutant; source: baculovirus expression system, expressed together with Sep1 and Sep2; assembled complex purified
T3 sequence (looked up): T1 sequence (looked up) with A509E, A517E

[4] = target: T1, His-tagged nonphosphorylatable …; assay: pull-down; 2 µg purified recombinant septin complex diluted in 200 µl pull-down buffer (25 mM HEPES pH 7.6, 2 mM MgCl2, 10 mM imidazole) with 50 mM KCl; His-Pnut held on HisPur Ni-NTA resin, 1 hr at 22°; eluted with 250 mM imidazole; silver-stained SDS-PAGE; Sep1 given as a percentage of the Pnut amount
[5] = target: T2, His-tagged wild-type Pnut; assay: as above
[6] = target: T3, His-tagged phospho-mimetic …; assay: as above

Row | Binder | amount of Sep1 as a percentage of the Pnut amount [1] [%] | amount of Sep1 as a percentage of the Pnut amount [2] [%] | amount of Sep1 as a percentage of the Pnut amount [3] [%] | amount of Sep1 as a percentage of the Pnut amount [4] [%] | amount of Sep1 as a percentage of the Pnut amount [5] [%] | amount of Sep1 as a percentage of the Pnut amount [6] [%] | binding result [1] | binding result [2] | binding result [6]
1 | B1 | 62 | 62.3 | 31 | 17 | 34 | 1 |  |  | 
2 | B2 |  |  |  |  |  |  | binds | binds | binds

Source: PMC5765355, “Phosphorylation of Pnut in the Early Stages of Drosophila Embryo Development Affects Association of the Septin Complex with the Membrane and Is Important for Viability” (G3: Genes|Genomes|Genetics, 2017)
